From the supplement of paper PMC9428881
± gives the standard error.

Assay: background-corrected fluorescence of 3'-dye-labeled ssDNA relative to brightest sequence (3'-GCGCG) (fraction); higher = brighter dye fluorescence (less quenching)
Summary of the method: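 Arrays of single-stranded DNA, with a 3' Cy3 or Cy5 dye beside each of 1024 permuted pentamers, were built on glass slides through light-directed phosphoramidite synthesis. They were washed for 2 h at r.t. in acetonitrile and scanned at 532 or 635 nm, once before and once after overnight ethylenediamine/ethanol deprotection. Fluorescence is reported after subtracting unlabeled-oligo background and normalizing to the brightest sequence. Averages cover 10 features per array and at least 3 syntheses.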

Sequence | background-corrected fluorescence (dye: Cy3 (3' terminal)) | background-corrected fluorescence (dye: Cy5 (3' terminal))
TTTTTGCATCATCATGCTGCTTTTTTTTTTTTTTTTGGAA [AAGGT] | 0.653 ± 0.024 | 0.557 ± 0.029
TTTTTGCAGCATCAGCAGCATTTTTTTTTTTTTTTTTGTT | 0.554 ± 0.018 | 0.405 ± 0.024
TTTTTTCAGCATGATCATGCTTTTTTTTTTTTTTTGTCGA [AGCTG] | 0.645 ± 0.017 | 0.548 ± 0.034
TTTTTTGCTGCTGCGCATCATTTTTTTTTTTTTTTAAATG [GTAAA] | 0.499 ± 0.015 | 0.375 ± 0.035
TTTTTTGATGATCATGATGATTTTTTTTTTTTTTTCCGCC | 0.445 ± 0.024 | 0.33 ± 0.022
TTTTTTGATGATGAGCAGCATTTTTTTTTTTTTTTCCCTT | 0.452 ± 0.011 | 0.359 ± 0.025
TTTTTTCATCATCATCATCATTTTTTTTTTTTTTTGGGGG | 0.709 ± 0.059 | 0.635 ± 0.03
TTTTTTGCTCAGCATGATGATTTTTTTTTTTTTTTAGTCC [CCTGA] | 0.41 ± 0.024 | 0.329 ± 0.04
TTTTTTCAGCATGAGCATGATTTTTTTTTTTTTTTGTCTC [CTCTG] | 0.393 ± 0.034 | 0.33 ± 0.043
TTTTTTGCTCATGCGCATCATTTTTTTTTTTTTTTAGATG [GTAGA] | 0.552 ± 0.027 | 0.439 ± 0.018
TTTTTTCATGATGCTCATCATTTTTTTTTTTTTTTGCAGG [GGACG] | 0.642 ± 0.025 | 0.516 ± 0.039
TTTTTGCATCAGCATGCTGCTTTTTTTTTTTTTTTTGTAA [AATGT] | 0.596 ± 0.019 | 0.478 ± 0.03
TTTTTTGCTGAGCAGCATGATTTTTTTTTTTTTTTACTTC [CTTCA] | 0.405 ± 0.022 | 0.312 ± 0.027
TTTTTTGATGCTGCGCATCATTTTTTTTTTTTTTTCAATG [GTAAC] | 0.53 ± 0.029 | 0.364 ± 0.026
TTTTTTGCTGCTGCTCAGCATTTTTTTTTTTTTTTAAAGT [TGAAA] | 0.653 ± 0.026 | 0.514 ± 0.049
TTTTTTGATGCTGATCATGCTTTTTTTTTTTTTTTCACGA [AGCAC] | 0.594 ± 0.013 | 0.471 ± 0.023
TTTTTGCATGAGCATGCTGCTTTTTTTTTTTTTTTTCTAA [AATCT] | 0.539 ± 0.023 | 0.454 ± 0.047
TTTTTGCAGCATGATGATCATTTTTTTTTTTTTTTTTCCG [GCCTT] | 0.488 ± 0.011 | 0.366 ± 0.035
TTTTTTGCTGCTGAGCAGCATTTTTTTTTTTTTTTAACTT [TTCAA] | 0.523 ± 0.0097 | 0.362 ± 0.026
TTTTTGCATGCTGCTCAGCATTTTTTTTTTTTTTTTAAGT [TGAAT] | 0.663 ± 0.018 | 0.493 ± 0.031
TTTTTTCATCATGATCATGCTTTTTTTTTTTTTTTGGCGA [AGCGG] | 0.714 ± 0.035 | 0.618 ± 0.07
TTTTTTGCTCATGAGCATCATTTTTTTTTTTTTTTAGCTG [GTCGA] | 0.524 ± 0.005 | 0.424 ± 0.058
TTTTTTGAGCATCATGCTGATTTTTTTTTTTTTTTCTGAC [CAGTC] | 0.465 ± 0.024 | 0.354 ± 0.033

Sequence | background-corrected fluorescence (dye: Cy3 (3' terminal)) | background-corrected fluorescence (dye: Cy5 (3' terminal))
TTTTTTGATGCTGCTCAGCATTTTTTTTTTTTTTTCAAGT [TGAAC] | 0.629 ± 0.0081 | 0.478 ± 0.039
TTTTTGCATCATGATCATGCTTTTTTTTTTTTTTTTGCGA [AGCGT] | 0.675 ± 0.036 | 0.616 ± 0.044
TTTTTTCATGATGAGCATGATTTTTTTTTTTTTTTGCCTC [CTCCG] | 0.354 ± 0.016 | 0.286 ± 0.06
TTTTTTGAGCATCATGATCATTTTTTTTTTTTTTTCTGCG [GCGTC] | 0.589 ± 0.024 | 0.483 ± 0.051
TTTTTTGCGCAGCATGCTGCTTTTTTTTTTTTTTTATTAA [AATTA] | 0.585 ± 0.024 | 0.416 ± 0.035
TTTTTTGAGCATGCTGATGCTTTTTTTTTTTTTTTCTACA [ACATC] | 0.498 ± 0.043 | 0.364 ± 0.024
TTTTTTGCTGATGCGCAGCATTTTTTTTTTTTTTTACATT | 0.546 ± 0.011 | 0.384 ± 0.021
TTTTTTGCTGATCATGAGCATTTTTTTTTTTTTTTACGCT [TCGCA] | 0.5 ± 0.065 | 0.391 ± 0.029
TTTTTTGCTGCTCATGAGCATTTTTTTTTTTTTTTAAGCT [TCGAA] | 0.56 ± 0.028 | 0.402 ± 0.026
TTTTTTCATCATGATCATCATTTTTTTTTTTTTTTGGCGG | 0.649 ± 0.014 | 0.604 ± 0.054
TTTTTTCATGATCATGCGCATTTTTTTTTTTTTTTGCGAT [TAGCG] | 0.5348 ± 0.0049 | 0.474 ± 0.037
TTTTTTCATGAGCATGATGATTTTTTTTTTTTTTTGCTCC [CCTCG] | 0.396 ± 0.022 | 0.286 ± 0.021
TTTTTGCATGCGCATGCTGATTTTTTTTTTTTTTTTATAC [CATAT] | 0.449 ± 0.022 | 0.333 ± 0.035
TTTTTTGCTGATCATCATGATTTTTTTTTTTTTTTACGGC [CGGCA] | 0.594 ± 0.029 | 0.433 ± 0.049
TTTTTTGATGATGCTCAGCATTTTTTTTTTTTTTTCCAGT [TGACC] | 0.615 ± 0.023 | 0.458 ± 0.021
TTTTTTCATGATCATCATGATTTTTTTTTTTTTTTGCGGC [CGGCG] | 0.658 ± 0.028 | 0.506 ± 0.029
TTTTTTGATGAGCATGCTGCTTTTTTTTTTTTTTTCCTAA [AATCC] | 0.538 ± 0.015 | 0.432 ± 0.031
TTTTTTCATGCTGATGAGCATTTTTTTTTTTTTTTGACCT [TCCAG] | 0.453 ± 0.026 | 0.34 ± 0.026
TTTTTTGCGCATGATGCTCATTTTTTTTTTTTTTTATCAG [GACTA] | 0.56 ± 0.045 | 0.411 ± 0.03
TTTTTTGATGATCATGCGCATTTTTTTTTTTTTTTCCGAT [TAGCC] | 0.603 ± 0.04 | 0.435 ± 0.022
TTTTTTGAGCATGCTGATGATTTTTTTTTTTTTTTCTACC [CCATC] | 0.375 ± 0.032 | 0.284 ± 0.016
TTTTTTGATCATGAGCAGCATTTTTTTTTTTTTTTCGCTT | 0.51 ± 0.017 | 0.409 ± 0.047
TTTTTTGCTGCTGCTGCTGCTTTTTTTTTTTTTTTAAAAA | 0.593 ± 0.0096 | 0.476 ± 0.026

Sequence | background-corrected fluorescence (dye: Cy3 (3' terminal)) | background-corrected fluorescence (dye: Cy5 (3' terminal))
TTTTTTGCTGAGCAGCAGCATTTTTTTTTTTTTTTACTTT [TTTCA] | 0.519 ± 0.022 | 0.37 ± 0.022
TTTTTTGAGCATGAGCAGCATTTTTTTTTTTTTTTCTCTT | 0.49 ± 0.0076 | 0.334 ± 0.024
TTTTTTGCTGCTCAGCATCATTTTTTTTTTTTTTTAAGTG [GTGAA] | 0.587 ± 0.027 | 0.457 ± 0.042
TTTTTTCAGCAGCATCAGCATTTTTTTTTTTTTTTGTTGT | 0.679 ± 0.031 | 0.494 ± 0.027
TTTTTGCATCATGCTGCTGCTTTTTTTTTTTTTTTTGAAA [AAAGT] | 0.603 ± 0.021 | 0.522 ± 0.041
TTTTTTGCGCATGAGCATCATTTTTTTTTTTTTTTATCTG [GTCTA] | 0.55 ± 0.026 | 0.371 ± 0.036
TTTTTTCATCATGATGATGATTTTTTTTTTTTTTTGGCCC [CCCGG] | 0.387 ± 0.028 | 0.312 ± 0.028
TTTTTTGCTCATGCTCATGCTTTTTTTTTTTTTTTAGAGA | 0.633 ± 0.031 | 0.519 ± 0.029
TTTTTGCATGATGCTCATGCTTTTTTTTTTTTTTTTCAGA [AGACT] | 0.615 ± 0.017 | 0.531 ± 0.036
TTTTTTCATCATGCGCATGATTTTTTTTTTTTTTTGGATC [CTAGG] | 0.445 ± 0.019 | 0.35 ± 0.055
TTTTTTCAGCATGCTCATGCTTTTTTTTTTTTTTTGTAGA [AGATG] | 0.671 ± 0.021 | 0.533 ± 0.039
TTTTTGCATGATGCGCATCATTTTTTTTTTTTTTTTCATG [GTACT] | 0.524 ± 0.054 | 0.377 ± 0.019
TTTTTTGCTGCTGCGCAGCATTTTTTTTTTTTTTTAAATT | 0.543 ± 0.048 | 0.401 ± 0.019
TTTTTTGATCAGCATGCTGATTTTTTTTTTTTTTTCGTAC | 0.49 ± 0.01 | 0.376 ± 0.053
TTTTTTCATCATGAGCATGCTTTTTTTTTTTTTTTGGCTA [ATCGG] | 0.483 ± 0.016 | 0.42 ± 0.028
TTTTTTGATGAGCATGCTCATTTTTTTTTTTTTTTCCTAG [GATCC] | 0.532 ± 0.019 | 0.414 ± 0.023
TTTTTGCATCATCATGCTCATTTTTTTTTTTTTTTTGGAG [GAGGT] | 0.589 ± 0.02 | 0.494 ± 0.035
TTTTTTGATGATCAGCAGCATTTTTTTTTTTTTTTCCGTT [TTGCC] | 0.542 ± 0.036 | 0.446 ± 0.059
TTTTTTGATGCGCATGATGCTTTTTTTTTTTTTTTCATCA [ACTAC] | 0.483 ± 0.034 | 0.372 ± 0.026
TTTTTGCATCATGCGCATGCTTTTTTTTTTTTTTTTGATA [ATAGT] | 0.555 ± 0.039 | 0.481 ± 0.032
TTTTTTGCTGAGCATGAGCATTTTTTTTTTTTTTTACTCT [TCTCA] | 0.421 ± 0.0073 | 0.331 ± 0.022
TTTTTTCATGATGATCAGCATTTTTTTTTTTTTTTGCCGT | 0.651 ± 0.025 | 0.487 ± 0.022
TTTTTTCATGCGCATGCTGATTTTTTTTTTTTTTTGATAC [CATAG] | 0.448 ± 0.026 | 0.334 ± 0.024
